The text below walks through data of article PMC4220973, “Structural insights into the human RyR2 N-terminal region involved in cardiac arrhythmias” (Acta Crystallographica Section D: Biological Crystallography, 2014).

The data set deals with the molecule itself. Briefly: SEC; analytical size-exclusion chromatography at 4°C; self-association, monomer to dimer.

For orientation: stoichiometry N means the number of molecules, sites or subunits per partner or assembly.

B1: hRyR2^1-606 I419F mutant (domain or fragment, human, UniProt Q92736 1-606, looked up)
chain: MADGGEGEDEIQFLRTDDEVVLQCTATIHKEQQKLCLAAEGFGNRLCFLESTSNSKNVPPDLSICTFVLEQSLSVRALQEMLANTVEKSEGQVDVEKWKFMMKTAQGGGHRTLLYGHAILLRHSYSGMYLCCLSTSRSSTDKLAFDVGLQEDTTGEACWWTIHPASKQRSEGEKVRVGDDLILVSVSSERYLHLSYGNGSLHVDAAFQQTLWSVAPISSGSEAAQGYLIGGDVLRLLHGHMDECLTVPSGEHGEEQRRTVHYEGGAVSVHARSLWRLETLRVAWSGSHIRWGQPFRLRHVTTGKYLSLMEDKNLLLMDKEKADVKSTAFTFRSSKEKLDVGVRKEVDGMGTSEIKYGDSVCYIQHVDTGLWLTYQSVDVKSVRMGSIQRKAIMHHEGHMDDGISLSRSQHEESRTARVFRSTVFLFNRFIRGLDALSKKAKASTVDLPIESVSLSLQDLIGYFHPPDEHLEHEDKQNRLRALKNRQNLFQEEGMINLVLECIDRLHVYSSAAHFADVAGREAGESWKSILNSLYELLAALIRGNRKNCAQFSGSLDWLISRLERLEASSGILEVLHCVLVESPEALNIIKEGHIKSIISLLDKHGR
notes: human ryanodine receptor 2 (hRyR2), N-terminal region, amino acids 1-606, with the cardiac disease-associated mutation I419F in the central helix; Mixture of dimer and monomer by SEC at 4°C (65:35%); Construct details (host, tags) are in Borko et al. (2013); source: recombinant, purified; substitution mutant prepared with the QuikChange protocol
Regarding B1, the “percent dimer (dimer:monomer ratio)” value worked out at 65% and the “stoichiometry N” value stood at 2.
